Measurements as given in paper PMC12816671.

Experiments:
Ku70/80 full length = Ku70/80 full length (Homo sapiens, UniProt P12956;P13010 1-609;1-732); assay: EMSA; SAP EMSA: 105 mM KCl (400 bp) or 46 mM KCl (153 bp), 3 mM Tris-HCl pH 7.5, 0.1 mM EDTA, 3-4% glycerol, 15 min room temp, agarose (0.8% or 1.5%); Ku70/80 EMSA: 5; details: protein: recombinant; copies: 1;1
Ku70/80-dSAP = Ku70/80-dSAP (Homo sapiens, UniProt P12956;P13010 1-544;1-732); assay: EMSA; higher shift than full length, multiple loading; SAP EMSA: 105 mM KCl (400 bp) or 46 mM KCl (153 bp), 3 mM Tris-HCl pH 7.5, 0.1 mM EDTA, 3-4% glycerol, 15 min room temp, agarose (0.8% or 1.5%); Ku70/80 EMSA: 5; details: protein: recombinant; copies: 1;1
Ku70/80-dSAP, sequence (P12956 1-544, chain 1 of 2): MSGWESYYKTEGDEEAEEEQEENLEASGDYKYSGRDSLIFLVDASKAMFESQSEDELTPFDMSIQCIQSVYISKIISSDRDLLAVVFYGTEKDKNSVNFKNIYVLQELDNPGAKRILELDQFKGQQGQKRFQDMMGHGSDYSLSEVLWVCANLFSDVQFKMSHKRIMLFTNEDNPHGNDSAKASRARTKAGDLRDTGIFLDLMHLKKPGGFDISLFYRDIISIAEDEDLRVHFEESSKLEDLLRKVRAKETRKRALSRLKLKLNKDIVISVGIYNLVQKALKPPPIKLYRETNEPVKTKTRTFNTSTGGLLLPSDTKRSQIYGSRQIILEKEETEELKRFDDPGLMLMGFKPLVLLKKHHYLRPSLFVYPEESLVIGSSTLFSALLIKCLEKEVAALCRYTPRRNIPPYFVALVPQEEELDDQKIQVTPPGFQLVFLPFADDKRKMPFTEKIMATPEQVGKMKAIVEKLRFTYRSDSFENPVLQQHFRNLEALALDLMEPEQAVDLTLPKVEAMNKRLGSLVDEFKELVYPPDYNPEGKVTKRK
Ku70/80-dSAP, sequence (P13010 whole entry, chain 2 of 2, the tested form may be a part): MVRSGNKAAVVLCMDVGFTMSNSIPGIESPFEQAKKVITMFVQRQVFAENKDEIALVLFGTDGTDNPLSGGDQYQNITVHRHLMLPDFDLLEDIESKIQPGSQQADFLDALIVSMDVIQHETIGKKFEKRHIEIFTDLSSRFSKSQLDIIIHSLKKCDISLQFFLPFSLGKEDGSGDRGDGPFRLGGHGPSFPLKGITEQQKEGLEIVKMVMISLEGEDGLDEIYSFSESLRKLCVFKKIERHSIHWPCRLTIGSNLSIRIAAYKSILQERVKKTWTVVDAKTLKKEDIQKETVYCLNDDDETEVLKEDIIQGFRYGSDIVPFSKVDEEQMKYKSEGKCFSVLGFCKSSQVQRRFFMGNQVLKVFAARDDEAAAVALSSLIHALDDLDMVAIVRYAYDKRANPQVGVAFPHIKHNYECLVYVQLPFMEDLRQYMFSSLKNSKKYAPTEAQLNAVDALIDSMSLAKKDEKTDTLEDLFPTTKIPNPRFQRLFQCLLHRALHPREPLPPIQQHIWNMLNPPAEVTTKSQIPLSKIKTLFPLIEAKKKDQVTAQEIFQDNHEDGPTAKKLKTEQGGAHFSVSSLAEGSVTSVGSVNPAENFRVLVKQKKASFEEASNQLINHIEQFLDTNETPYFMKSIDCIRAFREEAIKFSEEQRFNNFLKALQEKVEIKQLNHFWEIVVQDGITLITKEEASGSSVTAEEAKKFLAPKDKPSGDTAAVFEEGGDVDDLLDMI

Ku70 SAP domain WT = Ku70 SAP domain WT (Homo sapiens, UniProt P12956 539-609); assay: EMSA; 46 mM KCl; preferred over nucleosome; SAP EMSA: 105 mM KCl (400 bp) or 46 mM KCl (153 bp), 3 mM Tris-HCl pH 7.5, 0.1 mM EDTA, 3-4% glycerol, 15 min room temp, agarose (0.8% or 1.5%); Ku70/80 EMSA: 5; details: protein: recombinant; tags: none (His14-SUMObd cleaved)
Ku70 SAP domain WT, sequence (P12956 539-609): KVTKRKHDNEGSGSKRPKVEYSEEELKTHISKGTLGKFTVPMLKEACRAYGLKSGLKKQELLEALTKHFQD

Measured: binding result

Ku70/80 full length, sequence (P12956 whole entry, chain 1 of 2): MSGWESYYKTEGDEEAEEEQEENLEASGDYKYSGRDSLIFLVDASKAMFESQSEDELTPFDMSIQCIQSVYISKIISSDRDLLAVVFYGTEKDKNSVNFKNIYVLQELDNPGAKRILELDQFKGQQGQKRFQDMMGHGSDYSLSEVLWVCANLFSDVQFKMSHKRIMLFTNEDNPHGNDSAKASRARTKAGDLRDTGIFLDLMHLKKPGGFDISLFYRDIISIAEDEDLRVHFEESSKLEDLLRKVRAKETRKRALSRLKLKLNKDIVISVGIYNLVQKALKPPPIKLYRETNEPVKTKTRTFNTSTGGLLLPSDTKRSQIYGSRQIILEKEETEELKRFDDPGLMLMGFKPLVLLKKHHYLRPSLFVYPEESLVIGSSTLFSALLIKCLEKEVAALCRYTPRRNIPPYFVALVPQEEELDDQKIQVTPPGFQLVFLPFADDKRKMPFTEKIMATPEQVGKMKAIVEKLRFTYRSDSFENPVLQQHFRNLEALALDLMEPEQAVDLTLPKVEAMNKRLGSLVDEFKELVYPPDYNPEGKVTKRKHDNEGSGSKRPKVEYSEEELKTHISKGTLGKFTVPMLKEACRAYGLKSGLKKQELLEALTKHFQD
Ku70/80 full length, sequence (P13010 whole entry, chain 2 of 2): as the sequence (P13010 whole entry, chain 2 of 2, the tested form may be a part) above

B1: 153 bp free DNA (dsDNA)
DNA 1: ATCCTGGAGAATCCCGGTGCCGAGGCCGCTCAATTGGTCGTAGACAGCTCTAGCACCGCTTAAACGCACGTACGCGCTGTCCCCCGCGTTTTAACCGCCAAGGGGATTACTCCCTAGTCTCCAGGCACGTGTCAGATATATACATCCTGTGAT
DNA 2: ATCACAGGATGTATATATCTGACACGTGCCTGGAGACTAGGGAGTAATCCCCTTGGCGGTTAAAACGCGGGGGACAGCGCGTACGTGCGTTTAAGCGGTGCTAGAGCTGTCTACGACCAATTGAGCGGCCTCGGCACCGGGATTCTCCAGGAT
binds: all assays above
